Results taken from US20040048327.

Assays:
Ac-AHph-trans-EP-COOEt = test system: T1, Ac-AHph-trans-EP-COOEt
T1 sequence: X

[1] = test system: T2, Ac-Leu-AHph-trans-EP-COOEt
T2 sequence: LX

[2] = test system: T3, Ac-Leu-ALeu-trans-EP-COOEt
T3 sequence: LL

Cbz-AHph-trans-EP-COOEt = test system: T4, Cbz-AHph-trans-EP-COOEt
T4 sequence: X

Cbz-ALeu-trans-EP-COOEt = test system: T5, Cbz-ALeu-trans-EP-COOEt
T5 sequence: L

[3] = test system: T6, Cbz-Leu-AAbu-trans-EP-COOEt
T6 sequence: LX

[4] = test system: T7, Cbz-Leu-AAbu-trans-EP-COOH
T7 sequence: LX

[5] = test system: T8, Cbz-Leu-AHph-(2R, 3R)-EP-COOEt
T8 sequence: LX

[6] = test system: T9, Cbz-Leu-AHph-(2S, 3S)-EP-COOEt
T9 sequence: LX

[7] = test system: T10, Cbz-Leu-AHph-(2S, 3S)-EP-COOH
T10 sequence: LX

[8] = test system: T11, Cbz-Leu-AHph-cis-EP-COOEt
T11 sequence: LX

[9] = test system: T12, Cbz-Leu-ALeu-(2R, 3R)-EP-COOEt
T12 sequence: LL

[10] = test system: T13, Cbz-Leu-ALeu-(2S, 3S)-EP-COOEt
T13 sequence: LL

[11] = test system: T14, Cbz-Leu-ALeu-cis-EP-COOEt
T14 sequence: LL

[12] = test system: T15, Cbz-Leu-ALeu-trans-EP-COOEt
T15 sequence: LL

[13] = test system: T16, Cbz-Leu-Leu-ALeu-(2R, 3R)-EP-COOEt
T16 sequence: LLL

[14] = test system: T17, Cbz-Leu-Leu-ALeu-(2S, 3S)-EP-COOEt
T17 sequence: LLL

[15] = test system: T18, Cbz-Leu-Leu-ALeu-(2S, 3S)-EP-COOH
T18 sequence: LLL

[16] = test system: T19, Cbz-Leu-Leu-ALeu-trans-EP-COOEt
T19 sequence: LLL

[17] = test system: T20, Boc-Abu-AHph-trans-EP-CH2CH2Ph
T20 sequence: XX

[18] = test system: T21, Boc-Nle-AHph-trans-EP-CH2CH2Ph
T21 sequence: XX

[19] = test system: T22, Boc-Nle-AHph-trans-EP-COOEt
T22 sequence: XX

[20] = test system: T23, Boc-Np2-ALeu-trans-EP-COOEt
T23 sequence: XL

[21] = test system: T24, Boc-Nva-AHph-trans-EP-COOEt
T24 sequence: XX

Cbz-APhe-trans-EP-COOEt = test system: T25, Cbz-APhe-trans-EP-COOEt
T25 sequence: F

[22] = test system: T26, Cbz-Ala-Ala-AAsn-(2R, 3R)-EP-COOEt
T26 sequence: AAN

[23] = test system: T27, Cbz-Ala-Ala-AAsn-(2S, 3S)-EP-COOEt
T27 sequence: AAN

[24] = test system: T28, Cbz-Ala-Ala-AAsn-cis-EP-COOEt
T28 sequence: AAN

[25] = test system: T29, Cbz-Ala-Ala-AAsn-trans-EP-COOCH2Ph
T29 sequence: AAN

[26] = test system: T30, Cbz-Ala-Ala-AAsn-trans-EP-COOEt
T30 sequence: AAN

[27] = test system: T31, Cbz-Ala-Ala-NHN(CH2COOEt)-trans-EP-COOEt
T31 sequence: AAD

[28] = test system: T32, Cbz-Asp-Glu-Val-AAsp-(2R, 3R)-EP-COOEt
T32 sequence: DEVD

[29] = test system: T33, Cbz-Asp-Glu-Val-AAsp-(2S, 3S)-EP-COOEt
T33 sequence: DEVD

[30] = test system: T34, Cbz-Ile-Glu-Thr-AAsp-(2S, 3S)-EP-COOEt
T34 sequence: IETD

[31] = test system: T35, Cbz-Leu-Glu-Thr-AAsp-(2R, 3R)-EP-COOEt
T35 sequence: LETD

[32] = test system: T36, Cbz-Leu-Glu-Thr-AAsp-(2S, 3S)-EP-COOEt
T36 sequence: LETD

[33] = test system: T37, Cbz-Leu-Phe-AGln-(2R, 3R)-EP-COOEt
T37 sequence: LFQ

[34] = test system: T38, Cbz-Leu-Phe-AGln-(2S, 3S)-EP-COOEt
T38 sequence: LFQ

[35] = test system: T39, Cbz-Leu-Phe-AGln-trans-EP-COOEt
T39 sequence: LFQ

[36] = test system: T40, Cbz-Phe-ALeu-trans-EP-CH2CH2Ph
T40 sequence: FL

[37] = test system: T41, Cbz-Phe-ALeu-trans-EP-COOEt
T41 sequence: FL

[38] = test system: T42, Cbz-Phe-APhe-trans-EP-CH2CH2Ph
T42 sequence: FF

[39] = test system: T43, PhPr-Val-Ala-AAsp-(2R, 3R)-EP-COOCH2Ph
T43 sequence: VAD

[40] = test system: T44, PhPr-Val-Ala-AAsp-(2S, 3S)-EP-COOCH2Ph
T44 sequence: VAD

[41] = test system: T45, PhPr-Val-Ala-AAsp-trans-EP-CH2CH2Ph
T45 sequence: VAD

[42] = test system: T46, PhPr-Val-Ala-AAsp-trans-EP-COOCH2Ph
T46 sequence: VAD

[43] = test system: T47, Suc-Np2-ALeu-trans-EP-COOEt
T47 sequence: XL

[44] = test system: T48, Nle-AHph-trans-EP-COOEt.TFA
T48 sequence: XX

[45] = test system: T49, Nva-AHph-trans-EP-CH2CH2Ph.TFA
T49 sequence: XX

[46] = test system: T50, Nva-AHph-trans-EP-COOEt.TFA
T50 sequence: XX

Substance: calpain
- kobs/[I] (Ac-AHph-trans-EP-COOEt): 1.29 M⁻¹ s⁻¹
- kobs/[I] [1]: 0.84 M⁻¹ s⁻¹
- kobs/[I] [2]: 1.48 M⁻¹ s⁻¹
- kobs/[I] (Cbz-AHph-trans-EP-COOEt): 2.44 M⁻¹ s⁻¹
- kobs/[I] (Cbz-ALeu-trans-EP-COOEt): 1.75 M⁻¹ s⁻¹
- kobs/[I] [3]: 1.98 M⁻¹ s⁻¹
- kobs/[I] [4]: 0.57 M⁻¹ s⁻¹
- kobs/[I] [5]: 2.12 M⁻¹ s⁻¹
- kobs/[I] [6]: 2.28 M⁻¹ s⁻¹
- kobs/[I] [7]: 2.12 M⁻¹ s⁻¹
- kobs/[I] [8]: 1.09 M⁻¹ s⁻¹
- kobs/[I] [9]: 1.45 M⁻¹ s⁻¹
- kobs/[I] [10]: 8.58 M⁻¹ s⁻¹
- kobs/[I] [11]: 1.88 M⁻¹ s⁻¹
- kobs/[I] [12]: 3.09 M⁻¹ s⁻¹
- kobs/[I] [13]: NI
- kobs/[I] [14]: 2.48 M⁻¹ s⁻¹
- kobs/[I] [15]: 0.82 M⁻¹ s⁻¹
- kobs/[I] [16]: 2.65 M⁻¹ s⁻¹

Substance: cathepsin B
- kobs/[I] (Ac-AHph-trans-EP-COOEt): 40.6 M⁻¹ s⁻¹
- kobs/[I] [1]: 0.59 M⁻¹ s⁻¹
- kobs/[I] [2]: 8 M⁻¹ s⁻¹
- kobs/[I] [17]: NI
- kobs/[I] [18]: NI
- kobs/[I] [19]: 1.3 M⁻¹ s⁻¹
- kobs/[I] [20]: 0.39 M⁻¹ s⁻¹
- kobs/[I] [21]: 2.7 M⁻¹ s⁻¹
- kobs/[I] (Cbz-AHph-trans-EP-COOEt): 8.91 M⁻¹ s⁻¹
- kobs/[I] (Cbz-ALeu-trans-EP-COOEt): 4.43 M⁻¹ s⁻¹
- kobs/[I] (Cbz-APhe-trans-EP-COOEt): 1.8 M⁻¹ s⁻¹
- kobs/[I] [22]: NI
- kobs/[I] [23]: 6 M⁻¹ s⁻¹
- kobs/[I] [24]: NI
- kobs/[I] [25]: 1.09 M⁻¹ s⁻¹
- kobs/[I] [26]: 1.27 M⁻¹ s⁻¹
- kobs/[I] [27]: 2.53 M⁻¹ s⁻¹
- kobs/[I] [28]: NI
- kobs/[I] [29]: NI
- kobs/[I] [30]: NI
- kobs/[I] [4]: NI
- kobs/[I] [5]: NI
- kobs/[I] [6]: 0.67 M⁻¹ s⁻¹
- kobs/[I] [8]: NI
- kobs/[I] [9]: NI
- kobs/[I] [10]: 1.8 M⁻¹ s⁻¹
- kobs/[I] [11]: 6.27 M⁻¹ s⁻¹
- kobs/[I] [12]: 23.3 M⁻¹ s⁻¹
- kobs/[I] [31]: NI
- kobs/[I] [32]: NI
- kobs/[I] [13]: NI
- kobs/[I] [14]: 0.98 M⁻¹ s⁻¹
- kobs/[I] [15]: 7.02 M⁻¹ s⁻¹
- kobs/[I] [16]: NI
- kobs/[I] [33]: NI
- kobs/[I] [34]: 4.73 M⁻¹ s⁻¹
- kobs/[I] [35]: 1.3 M⁻¹ s⁻¹
- kobs/[I] [36]: NI
- kobs/[I] [37]: 3.61 M⁻¹ s⁻¹
- kobs/[I] [38]: NI
- kobs/[I] [39]: NI
- kobs/[I] [40]: 0.81 M⁻¹ s⁻¹
- kobs/[I] [41]: NI
- kobs/[I] [42]: < 10 M⁻¹ s⁻¹
- kobs/[I] [43]: 0.8 M⁻¹ s⁻¹

Substance: chymotrypsin
- kobs/[I] [22]: NI
- kobs/[I] [23]: NI
- kobs/[I] [24]: NI
- kobs/[I] [26]: NI
- kobs/[I] [28]: NI
- kobs/[I] [29]: NI
- kobs/[I] [31]: NI
- kobs/[I] [32]: NI
- kobs/[I] [41]: NI
- kobs/[I] [42]: NI

Substance: dipeptidyl peptidase I
- kobs/[I] [19]: 0.7 M⁻¹ s⁻¹
- kobs/[I] [21]: 0.5 M⁻¹ s⁻¹
- kobs/[I] [44]: 8.2 M⁻¹ s⁻¹
- kobs/[I] [45]: 0.1 M⁻¹ s⁻¹
- kobs/[I] [46]: 3.2 M⁻¹ s⁻¹
